# According to patent US10280205B2, “Method for treating cancer with an activated T lymphocyte that selectively recognizes a cancer cell consisting of specific peptide” (immatics biotechnologies GmbH, priority 2015, dated 2019):
# Target: HLA-A*02:01 (Homo sapiens, UniProt P04439, D140Y/D185E/D98H/E176V/E277Q/G131W/G231S/I119V/I121R/I166T/I218V/L300P/L318F/N151K/N90K/P208A/P217A/Q86G/Q94H/R138H/R169H/T345S)
# Test: MHC binding assay: UV-ligand exchange with beta2m ELISA (exchange yield)
# Conditions: binding to HLA-A*02:01, β2m ELISA
# Source text: Candidate peptides for T cell based therapies according to the present invention were further tested for their MHC binding capacity (affinity). The individual peptide-MHC complexes were produced by UV-ligand exchange, where a UV-sensitive peptide is cleaved upon UV-irradiation, and exchanged with the peptide of interest as analyzed. Only peptide candidates that can effectively bind and stabilize the peptide-receptive MHC molecules prevent dissociation of the MHC complexes. To determine the yield of the exchange reaction, an ELISA was performed based on the detection of the light chain (β2m) of stabilized MHC complexes. The assay was performed as generally described in Rodenko et al. (Rodenko et al., 2006).
# 96 well MAXISorp plates (NUNC) were coated over night with 2 ug/ml streptavidin in PBS at room temperature, washed 4× and blocked for 1 h at 37° C. in 2% BSA containing blocking buffer. […] Peptide-MHC monomers of the UV-exchange reaction were diluted 100 fold in blocking buffer. Samples were incubated for 1h at 37° C., washed four times, incubated with 2 ug/ml HRP conjugated anti-β2m for 1h at 37° C., washed again and detected with TMB solution that is stopped with […]. Absorption was measured at 450 nm. Candidate peptides that show a high exchange yield (preferably higher than 50%, most preferred higher than 75%) are generally preferred for a generation and production of antibodies or fragments thereof, and/or T cell receptors or fragments thereof, as they show sufficient avidity to the MHC molecules and prevent dissociation of the MHC complexes.
row,Substance,"Peptide exchange (MHC class I binding score, peptide exchange yield)"
1,500 (SLMEDQVLQL; listed as Homo sapiens) [compound 500],“+++” (≥50 = +++)
2,396 (ALLPDLPAL; listed as Homo sapiens) [compound 396],“+++” (≥50 = +++)
3,373 (SLLEDKGLAEV; listed as Homo sapiens) [compound 373],“++” (≥20% = ++)
4,344 (YLQDQHLLLTV; listed as Homo sapiens) [compound 344],“+++” (≥50 = +++)
5,523 (YQIPRTFTL; listed as Homo sapiens) [compound 523],“++” (≥20% = ++)
6,556 (FLTDLEDLTL; listed as Homo sapiens) [compound 556],“+++” (≥50 = +++)
7,237 (ALLEASGTLLL; listed as Homo sapiens) [compound 237],“++++” (≥75% = ++++)
8,357 (SMHDLVLQV; listed as Homo sapiens) [compound 357],“+++” (≥50 = +++)
9,618 (VLFDSESIGIYV; listed as Homo sapiens) [compound 618],“+++” (≥50 = +++)
10,191 (LLQEGQALEYV; listed as Homo sapiens) [compound 191],“++” (≥20% = ++)
11,553 (SLLNQDLHWSL; listed as Homo sapiens) [compound 553],“++++” (≥75% = ++++)
12,273 (NLFQSVREV; listed as Homo sapiens) [compound 273],“++” (≥20% = ++)
13,72 (SLLELDGINL; listed as Homo sapiens) [compound 72],“+++” (≥50 = +++)
14,400 (SLLTEQDLWTV; listed as Homo sapiens) [compound 400],“++” (≥20% = ++)
15,440 (ALADGVTMQV; listed as Homo sapiens) [compound 440],“++” (≥20% = ++)
16,165 (SLLDEIRAV; listed as Homo sapiens) [compound 165],“+++” (≥50 = +++)
17,361 (ALYELEGTTV; listed as Homo sapiens) [compound 361],“+++” (≥50 = +++)
18,587 (VMNDRLYAI; listed as Homo sapiens) [compound 587],“+++” (≥50 = +++)
19,473 (AMATESILHFA; listed as Homo sapiens) [compound 473],“+++” (≥50 = +++)
20,619 (ALQDRVPLA; listed as Homo sapiens) [compound 619],“+++” (≥50 = +++)
21,548 (ALWENPESGEL; listed as Homo sapiens) [compound 548],“++” (≥20% = ++)
22,567 (SLLPLDDIVRV; listed as Homo sapiens) [compound 567],“+++” (≥50 = +++)
23,224 (TLIDAQWVL; listed as Homo sapiens) [compound 224],“+++” (≥50 = +++)
24,312 (IISDLTIAL; listed as Homo sapiens) [compound 312],“+++” (≥50 = +++)
25,340 (ALLSMTFPL; listed as Homo sapiens) [compound 340],“++++” (≥75% = ++++)

row,Substance,"Peptide exchange (MHC class I binding score, peptide exchange yield)"
1,100 (YLLSTNAQL; listed as Homo sapiens) [compound 100],“++++” (≥75% = ++++)
2,316 (ILLERLWYV; listed as Homo sapiens) [compound 316],“+++” (≥50 = +++)
3,557 (KLYDDMIRL; listed as Homo sapiens) [compound 557],“+++” (≥50 = +++)
4,181 (LLWAGTAFQV; listed as Homo sapiens) [compound 181],“+++” (≥50 = +++)
5,39 (SVAPNLPAV; listed as Homo sapiens) [compound 39],“+++” (≥50 = +++)
6,248 (FLFPNQYVDV; listed as Homo sapiens) [compound 248],“+++” (≥50 = +++)
7,374 (FLLQQHLISA; listed as Homo sapiens) [compound 374],“++” (≥20% = ++)
8,15 (VLLTFKIFL; listed as Homo sapiens) [compound 15],“++” (≥20% = ++)
9,487 (LLINSVFHV; listed as Homo sapiens) [compound 487],“+++” (≥50 = +++)
10,392 (ALLHPQGFEV; listed as Homo sapiens) [compound 392],“++” (≥20% = ++)
11,341 (SQIALNEKLVNL; listed as Homo sapiens) [compound 341],“+++” (≥50 = +++)
12,370 (SLLQDLVSV; listed as Homo sapiens) [compound 370],“+++” (≥50 = +++)
13,578 (FLDPGGPMMKL; listed as Homo sapiens) [compound 578],“+++” (≥50 = +++)
14,514 (ILVDWLVQV; listed as Homo sapiens) [compound 514],“+++” (≥50 = +++)
15,352 (SLLELLHIYV; listed as Homo sapiens) [compound 352],“+++” (≥50 = +++)
16,164 (ALLPQPKNLTV; listed as Homo sapiens) [compound 164],“+++” (≥50 = +++)
17,375 (SLTETIEGV; listed as Homo sapiens) [compound 375],“++” (≥20% = ++)
18,68 (SLMELPRGLFL; listed as Homo sapiens) [compound 68],“++++” (≥75% = ++++)
19,517 (LLMPIPEGLTL; listed as Homo sapiens) [compound 517],“+++” (≥50 = +++)
20,103 (TLAEEVVAL; listed as Homo sapiens) [compound 103],“+++” (≥50 = +++)
21,167 (KVLEVTEEFGV; listed as Homo sapiens) [compound 167],“+++” (≥50 = +++)
22,430 (HLYSSIEHLTT; listed as Homo sapiens) [compound 430],“+++” (≥50 = +++)
23,169 (NLPEYLPFV; listed as Homo sapiens) [compound 169],“+++” (≥50 = +++)
24,170 (RLQETLSAA; listed as Homo sapiens) [compound 170],“+++” (≥50 = +++)
25,314 (ALIAEGIALV; listed as Homo sapiens) [compound 314],“+++” (≥50 = +++)
